Ends that are not written are not given here.
Tests used:
[1] = target: T1, protein-farnesyltransferase derived from bovine brains (bovine, UniProt P29702 2-375; P49355 1-437); experiment: cell-based or functional assay
[2] = target: T1, protein-farnesyltransferase derived …; experiment: cell-based or functional assay; remark: listed apart in the source

B1: compound (3) (peptide)
peptide: VYAVTGRGDSPASSGCVLS-OH
modifications: not fully specified (bridges); also: cyclic amide Gly alpha-amino to Asp side chain, places unclear
- IC50, protein-farnesyltransferase inhibiting activity in SPA enzyme assay kit (intake of [3H]-farnesyl diphosphate by biotin-lamin-B peptide) [1]: 0.42 µM
- IC50, protein-farnesyltransferase-inhibiting activity (transfer of [3H]-farnesyl diphosphate to v-Ki-Ras p21) [2]: 0.56 µM

B2: compound (4) (peptide)
peptide: VYAVTGRGDSPAFGGRIDRI-OH
modifications: not fully specified (bridges); also: cyclic amide Gly alpha-amino to Asp side chain, places unclear
- IC50, protein-farnesyltransferase-inhibiting activity (transfer of [3H]-farnesyl diphosphate to v-Ki-Ras p21) [2]: 9 µM

B3: compound (5) (peptide)
peptide: VYAVTGRGDSPAAFGGRIDRIGAA-OH
modifications: not fully specified (bridges); also: cyclic amide Gly alpha-amino to Asp side chain, places unclear
- IC50, protein-farnesyltransferase-inhibiting activity (transfer of [3H]-farnesyl diphosphate to v-Ki-Ras p21) [2]: 19 µM

Source: patent publication EP0672680A1 (KYOWA HAKKO KOGYO CO., LTD., dated 1995)
